T1: cancer cell-associated GPC2 (Homo sapiens, UniProt Q8N158)
T1 sequence (Q8N158 24-554): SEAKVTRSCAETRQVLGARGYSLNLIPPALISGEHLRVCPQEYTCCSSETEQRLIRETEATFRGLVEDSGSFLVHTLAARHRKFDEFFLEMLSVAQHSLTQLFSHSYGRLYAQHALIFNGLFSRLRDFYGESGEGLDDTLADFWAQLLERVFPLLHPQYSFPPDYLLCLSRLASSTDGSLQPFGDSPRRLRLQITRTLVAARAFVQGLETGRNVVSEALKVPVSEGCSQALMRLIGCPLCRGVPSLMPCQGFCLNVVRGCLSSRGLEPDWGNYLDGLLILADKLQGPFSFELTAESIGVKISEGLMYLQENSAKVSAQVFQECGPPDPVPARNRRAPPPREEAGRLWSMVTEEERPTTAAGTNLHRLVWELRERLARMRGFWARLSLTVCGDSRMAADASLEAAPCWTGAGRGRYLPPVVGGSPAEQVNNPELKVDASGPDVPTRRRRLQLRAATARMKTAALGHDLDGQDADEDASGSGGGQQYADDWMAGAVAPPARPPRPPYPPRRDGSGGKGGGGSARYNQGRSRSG

T2: GPC2 (Homo sapiens, UniProt Q8N158)
T2 sequence (Q8N158 24-554): T1 sequence (Q8N158 24-554)

B1: m202 (antibody, V domains shown)
VH: QVQLVQSGGGLIQPGGSLRLSCAASGFTVSSNYMSWVRQAPGKGLEWVSVIYSGGSTYYADSVKGRFTISRDNSKNTLYLQMNSLRAEDTAVYYCARDSNAFDIWGQGTMVTVSS
VL: EIVLTQSPLSLPVTPGEPASISCRSSQSLLYSNGYNYLDWYLQKPGKSPQVLIYLGSNRASGVPDRFSGSGSGTDFTLKISRVEAEDVGVYYCMQALQTPITFGQGTRLEIKR
B2: m203 (antibody, V domains shown)
VH: EVQLVQSGGGLVQPGGSLRLSCAASGFTFSSYAMSWVRQAPGKGLEWVSAISGSGGSTYYADSVKGRFTISRDNSKNTLSLQMDSLRPEDTAVYYCAKSRDSGNYLDAFDFWGQGTMVTVSS
VL: DIQLTQSPSTLSASVGDRVTITCRASQSISSWLAWYQQKAGKAPRLLIYDASTLESGVPSRFSGTGSGTYFTLTISSLQPEDFATYYCQQFNSFPLTFGGGTKVEIKR
B3: m201 (antibody, V domains shown)
VH: EVQLVETGGGVVKPGGSLRLSCAASGFTFSDYYMSWIRQAPGKGLEWVSYISSSGSTIYYADSVKGRFTISRDNSKNTLYLQMNSLRAEDTAVYYCARESGYDYVFDYWGQGTLVAVSS
VL: DIQMTQSPSTLSAFVGDRVTITCRASQSISSWLAWYQQKPGKAPKLLIYAASTLQSGVPSRFSGSGSGTEFTLTISSLQPEDFATYYCQQLNSYPITFGQGTRLEIKR

Tests used:
[1] = molecular target: T1, cancer cell-associated GPC2; assay: Targeting of GPC2 by phage display derived human antibodies; assay type: binding; conditions: isolated from phage display antibody library, affinity matured
[2] = molecular target: T2, GPC2; assay: In vitro characterization of GPC2 antibodies; conditions: for use in CAR-T, ADC and bispecific antibody development

| Molecule | specific targeting of cancer cell-associated GPC2 [1] | therapeutic activity in in vitro characterization [2] |
| --- | --- | --- |
| B1 | specifically targeting cancer cell-associated GPC2 | promising therapeutic activity |
| B2 | specifically targeting cancer cell-associated GPC2 | promising therapeutic activity |
| B3 | – | promising therapeutic activity |

Reference: patent US11814440B2, “Glypican 2 as a cancer marker and therapeutic target” (THE CHILDREN'S HOSPITAL OF PHILADELPHIA, priority 2015, dated 2023)
